Values of other authors, collected in PMC5298935.

Legend:
[1] = biological target: IRAK1 p144 peptide 140-149 (Homo sapiens) (UniProt P51617); assay: NMR titration
[2] = biological target: IRAK1 p173 peptide 157-180 (Homo sapiens) (UniProt P51617); assay: NMR titration
[3] = biological target: IRAK1 p144 peptide UD (Homo sapiens) (UniProt P51617); assay: NMR
[4] = biological target: IRAK1 p131 peptide UD (Homo sapiens) (UniProt P51617); assay: NMR
[5] = biological target: IRAK1 p173 peptide UD (Homo sapiens) (UniProt P51617); assay: NMR
IRAK1 p173 peptide UD (Homo sapiens), sequence (P51617 whole entry, looked up, tested part not stated): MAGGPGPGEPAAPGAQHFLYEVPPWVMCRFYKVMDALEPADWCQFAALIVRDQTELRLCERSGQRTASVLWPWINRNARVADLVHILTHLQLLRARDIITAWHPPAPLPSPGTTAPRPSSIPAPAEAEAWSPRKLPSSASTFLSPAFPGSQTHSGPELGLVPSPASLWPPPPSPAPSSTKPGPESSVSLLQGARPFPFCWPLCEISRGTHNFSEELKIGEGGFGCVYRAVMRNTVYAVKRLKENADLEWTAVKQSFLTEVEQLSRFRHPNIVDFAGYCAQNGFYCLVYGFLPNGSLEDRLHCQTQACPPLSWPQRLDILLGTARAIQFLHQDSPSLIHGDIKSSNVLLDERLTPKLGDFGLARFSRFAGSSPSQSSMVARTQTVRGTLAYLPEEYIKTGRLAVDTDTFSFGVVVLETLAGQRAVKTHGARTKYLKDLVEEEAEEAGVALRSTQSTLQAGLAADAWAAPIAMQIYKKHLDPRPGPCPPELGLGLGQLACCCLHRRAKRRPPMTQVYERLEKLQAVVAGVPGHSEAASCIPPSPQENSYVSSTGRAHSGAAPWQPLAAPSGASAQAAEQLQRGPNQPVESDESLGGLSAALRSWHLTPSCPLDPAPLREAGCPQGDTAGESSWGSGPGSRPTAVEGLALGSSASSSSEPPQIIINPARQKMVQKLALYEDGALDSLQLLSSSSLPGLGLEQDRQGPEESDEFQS

Pin1 WW, sequence (Q13526 2-42): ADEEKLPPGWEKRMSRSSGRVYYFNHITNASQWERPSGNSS
Pin1 WW domain 1-50, sequence (Q13526 1-50): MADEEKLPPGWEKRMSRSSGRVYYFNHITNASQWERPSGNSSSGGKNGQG
IRAK1 p173 peptide 157-180 (Homo sapiens), sequence (P51617 157-180): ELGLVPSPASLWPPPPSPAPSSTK
IRAK1 p144 peptide UD (Homo sapiens), sequence (P51617 whole entry, looked up, tested part not stated): as the sequence (P51617 whole entry, looked up, tested part not stated) above
IRAK1 p144 peptide 140-149 (Homo sapiens), sequence (P51617 whole entry, looked up, tested part not stated): as above
IRAK1 p131 peptide UD (Homo sapiens), sequence (P51617 whole entry, looked up, tested part not stated): as above

Kd [1]	Kd [2]	Kd [3]	Kd [4]	Kd [5]	Substance
120 µM	260 µM				Pin1 WW domain 1-50 (from UniProt Q13526)
		120 µM	220 µM	260 µM	Pin1 WW (from UniProt Q13526)
